The text below walks through data of a protein production outcome set (Wang et al. 2014).

The data set in a line: label from the status in PepcDB records.
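Further: failed if final PepcDB status was selected cloned or expressed and not failed if soluble or beyond.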

Take “RTKDGLTLYTRRWDVESPRAVICLVHGLGEHSGRYEHVARFFNENGISFAAFDLRGHGRSEGKRGHAEYQQLMDDITLFLQSLDYDCPKILYGHSMGGNLALNYILRYDPDIAGGIISAPFLALPKELPKHLFFILKLLNVVAPSIQLSNGIDPNLISRDREVVEAYVSDPLVHDKISPRFILQSLEAGKWALENADRLRKPILLIHGTADQITSYRASQEFAKRAGELCKFVSYEGFYHEPHNEPEKERVLADMLKWIEEVI”: the protein production entry is “failed”.

In the case of “RTSYLEFNQRDKNSPYNNVNLRKAISAAIDRNALVDKILGDGSVVATGLIPEGMSYSPTDDTDFADENKKIVEYSPEKAKEYWAKAKKELGITTLKMDIVADDVDSTKKLAEYIQGTLKDTLEGIDVTVSPVPFSVRIDRGSRGDFETILGGWAADYADPSSFLDLFVTGNNYNRGRFSSKAYDELIEASATRDASDPEKRWEDMVKAEKLLIGEETALAPLYQKA”, the protein production result is reported as “failed”.

In the case of “RVTVMLAAFEGWNDAGEAASDALHYLNKLWDGKKVATVDAEEYYDFQFTRPTVRRTSSGARKVKWPSTRIYKAEVPDSNVDVVLVLGTEPSYRWRAYTTELLVHAEALKVDSVILVGALLADVPHSRPIPVSTTTEDSSLRERLNLEASQYEGPVGIVGVLAEFAMLAGLPTVSLWAAVPHYVAQPPSPKAQLAILHRIEDLLQVPLDSQALAEESEAWERGVDELATEDPEITAYVRQLEEAKDTADLPE”, the protein production entry is reported as “not failed”.

“RYENILLPTDGSEGADLAIEWGITLAEIYDATVHTLYSVDTSRFGGVEGSAEIHDALEETGQEALETVHERARDADVSIAGNIASGPAARAILSYSEEHDIDLIAMGTHGRSGLTRYLTGSVTETVVRNAAVPVCCVPMQ”: the protein production entry is recorded as “failed”.

Regarding “RYGGDSTMIEMAFNKILIYAFGQFSAYSVWFDNNYLNIVDTIPGYGVFTGVVSKIFDFDRVSGFYDSFTYISNEDYTNVFTLSR”, the protein production result is given as “failed”.

Consider “RYREGLSEALKEPEAKDPGFLERLVALYEEGGEDLLTPPGRVDVRVGEVEGLALVQAGFQKGEWLGELTLIGPLRMRYAEALSVAFSLSQVYTGQHAD”, for which the protein production entry is given as “failed”.

As for “SAAETRNVAGAEAPPPQKRYYRQRAHSNPMADHTLRYPVKPEEMDWSELYPEFFAPLTQNQSHDDPKDKKEKRAQAQVEFADIGCGYGGLLVELSPLFPDTLILGLEIRVKVSDYVQDRIRALRAAPAGGFQNIACLRSNAMKHLPNFFYKGQLTKMFFLFPDPHFKRTKHKWRIISPTLLAEYAYVLRVGGLVYTITDVLELHDWMCTHFEEHPLFERVPLEDLSEDPVVGHLGTSTEEGKKVLRNGGKNFPAIFRRIQDPVLQAVTSQTSLPGH”, the protein production result is recorded as “not failed”.

For “SAAVKDSCGKGEMATGNGRRLHLGIPEAVFVEDVDSFMKQPGNETADTVLKKLDEQYQKYKFMELNLAQKKGRLKGQIPEIKQTLEILKYMQKKKESTNSMETRFLLADNLYCKASVPPTDKVCLWLGANVMLEYDIDEAQALLEKNLSTATKNLDSLEEDLDFLRDQFTTTEVNMARVYNWDVKRRNKDDSTKNKA”, the protein production result was “not failed”.

Turning to “SAPPKQSWEQAVDTLRDIGALNAAGQITELGRTLATLPTDPRLGASLLHCGGGAAPTIAALSLDARGDIPRAIAAMSHQQRFTREVARLAGFVP”, the protein production result is listed as “failed”.

For the sequence “SASKRWSPPRGIHFTVEEGDLGFTLRGNTPVQVHFLDPHCSASLAGAKEGDYIVSIQGVDCKWLTVSEVMKLLKSFGGEEVEMKVVSLLDSTSSMHNK”, the protein production entry is on record as “not failed”.

“SAVDCPQHCDSSECKSSPRCERTVLDDCGCCRVCAAGRGETCYRTVSGMDGMKCGPGLRCQPSNGEDPFGEEFGICKDC”: the protein production entry is “failed”.

For the sequence “SAVSARLRTTAEDTSIAKSTQDPIGDTEISVANAKGSSDSNIKNSPGGNSVGQESELEHVPEEDDSGDKEADHEDSETATAKKRKAQPLKNPKKSLKRGRVPAPLNLSDSNTNTHGGNIKDGNLASSNSAHFPPVANQNVKSAPAQVTQHSKFQPRVQYLGKASSRQSIQVNNSSNSYGKPHMPSAGIMSAMNPYMPMNRYIMSPYYNPYGIPPPHMLNKPIMTPYVSYPYPMGPRTSIPYAMQGGNARPYEENEYSASNYRNKRVNDSYDSPLSGTASTGKTRRSEEGSRNSSVGSSANAGPTQQRADLRPADMIPAEEYHFERDALLSANTKARSASTSTSTSTSTNRDRSSWHEAEPNKDEEEGTDLAIEDGAVPTPTFTTFQRTSQPQQQSPSLLQGEIRLSSHIFAFEFPLSSSNVDKKMFMSICNKVWNESKELTKKSSSHHRTGK”, the protein production result is “failed”.

With “SDDNKTTGATYDPNQPVTVESFMPVEGKLREKVIVKGSNFGTDKSKVKVYFVDEAAERLSTVIGIDNNTLYCLAPRQLPGGNRIKVIVDGKEVTTDGTFKYEQAQNVSTISGSASKDGNDDGDLASAKFKYMWGIAAVGNNTVLAYQRDDPRVRLISVDDNKVTTVHPGFKGGKPAVTKDKQRVYSIGWEGTHTVYVYMKASGWAPTRIGQLGSTFSGKIGAVALDETEEWLYFVDSNKNFGRFNVKTQEVTLIKQLELSGSLGTNPGPYLIYYFVDSNFYMSDQNLSSVYKITPDGECEWFCGSATQKTVQDGLREEALFAQPNGMTVDEDGNFYIVDGFKGYCLRKLDILDGYVSTVAGQVDVASQIDGTPLEATFNYPYDICYDGEGGYWIAEAWGKAIRKYAVE”, the protein production result is “not failed”.

As to “SDILKDPPSEANSIQSANATTKTSETNHTSRPRLKNVDRSTAQQLAVTVGNVTVIITDFKEK”, the protein production result is reported as “failed”.

For the sequence “SDISLLLDVANAACHKGHVADARSIYEGVLAVRPGFAPARLGQALSHAVVNEFAEAERIINEEVLAEAPEDTDAKALLGLTYFLAGRDEEARDVLRPVAEGDTPAAYVARG”, the protein production result was “failed”.

For “SDLPDSASRVFCGRILSMVNTDDVNAIILAQKNMLDRFEKTNEMLLNFNNLSSARLQQMSERFLHHTRTLVEMKRDLDSIFRRIRTLKGKLARQHPEAFSHIPEASFLEEEDEDPIPPSTTTTIATSEQSTGSCDTSPDTVSPSLSPGFEDLSHVQAGSPAINGRSQTDDEEMTGE”, the protein production entry is listed as “failed”.

In the case of “SDQTRYSRLANITKIINTKLELREVLQRVTMAISEEIVRCDAVGIYLPEEDGTFRGFAGKPETINGVTLDTQVIDPGIDLLAKEVIETKKTIYIPDTSKDYRPDPRPVDAFKIKSLLALPISFGQELFGLVFLFDYGVPMNLTDSEIQSVEAYVNMAAVAIQNAKNLTQKENLIAEKQLLLNVTRDLSVCSS”, the protein production entry was “failed”.

As to “SDSRPAVLDLIGNTPLVRVTRFDTGPCTLYLKLESQNPGGSIKDRIGVAMIEAAERDGRLRPGGTIVEATAGNTGLGLALVGRAKGYRVVLVVPDKMSTEKVLHLRAMGAEVHITRSDVGKGHPEYYQDVAARLAQDIPGAFFADQFNNPANPLAHECGTGPELWAQTGHDLDAIVVGVGSSGTLTGLTRFFQKVQPELEMVLADPEGSIMAEYSRSGTLGTPGSWAVEGIGEDFVPAIADLSSVRHAYSISDEESFAMARELLRVEGIPGGSSTGTLLAAALRFCREQKEPKRVVSFVCDTGTRYLSKIYNDQWMTDQGLLQRKHYGDLRDIIARRFEEGRVISVGPDDTLLTAFQRMRLADVSQLPVLDDGKLVGVIDESDILLGVHADAPRFRDAVSSAMNAAPETLAPGASLAQLQAVLDRGLVAIVADASGFHGLITRFDLL”, the protein production result is “failed”.

“SEDPVFTFGLIADVQYADIEDGENYLRTRRRYYRGSADLLRDAVLQWRRERVQCVVQLGDIIDGHNRRRDASDRALDTVMAELDACSVDVHHVWGNHEFYNFSRPSLLSSRLNSAQRTGTDTGSDLIGDDIYAYEFSPAPNFRFVLLDAYDLSVIGREEESEKHTHSWRILTQHNHNLQDLNLPPVSVGLEQRFVKFNGGFSEQQLQWLDAVLTLSDHKQERVLIFSHLPVHPCAADPICLAWNHEAVLSVLRSHQSVLCFIAGHDHDGGRCTDSSGAQHITLEGVIETPPHSHAFATAYLYEDRMVMKGRGRVEDLTITYS”: the protein production result is listed as “not failed”.

Take “SEEDDEVVAMIKELLDTRIRPTVQEDGGDVIYRGFEDGIVRLKLQGSCTSCPSSIITLKSGIQNMLQFYIPEVEGVEQV”: the protein production result is reported as “not failed”.

Turning to “SEEPPVREEEEEEGEEDEERDEVGPEGALGKSPFQLTAEDVYDISYLLGRELMALGSDPRVTQLQFKVVRVLEMLEALVNEGSLALEELKMERDHLRKEVEGLRRQSPPASGEVNLGPNKMVVDLTDPNRPRFTLQELRDVLQERNKLKSQLLVVQEELQCYKSGLIPPREGPGGRREKDAVVTSAKNAGRNKEEKTIIKKLFFFRSGKQT”, the protein production entry was “failed”.

Turning to “SEPGEELEEEGSPGGREDGFTAEHLAAEAMAADMDPWLVFDARTTPATELDAWLAKYPPSQVTRYGDPGSPNSEPVGWIAVYGQGYSPNSGDVQGLQAAWEALQTSGRPITPGTLRQLAITHHVLSGKWLMHLAPGFKLDHAWAGIARAVVEGRLQVAKVSPRAKEGGRQVICVYTDDFTDRLGVLEADSAIRAAGIKCLLTYKPDVYTYLGIYRANRWHLCPTLYESRFQLGGSARGSRVLDRANNVELT”, the protein production result is listed as “not failed”.

“SESICNSLNSKLEPTLENLENLDVSAFQAPEDLLDGCRIYLCGFSGRKLDKLRRLINSGGGVRFNQLNEDVTHVIVGDYDDELKQFWNKSAHRPHVVGAKWLLECFSKGYMLSEEPYIH”: the protein production entry is listed as “not failed”.

Turning to “SESKIACHHTVHGFEQRRGLHSRNEKAMEYVAKGWSAIKEVERVIDYCELNDRRLIPLLRGAKENFELALEADNLNTHARYWLSKLHLKYHVPGACKAVGAALLVEAADMGNADAQYELGCRLRVENDHVQSDQQAFHYIENAVDQLHPGALYLLGIVYLTGDCVKQDVDSAIWCFHRASEKGHAGAAIAYGSLLLRGVQVPESLTKLNVVGVSPPKRARKNLENPEMNPLEMAKEQFQIAARAGCDLGLKWLQRVEQEEKLLMREQDNECAYV”, the protein production result is “failed”.

On to “SESQDIKALQKELEQFAKLLKQKRITLGYTQADVGLTLGVLFGKVFSQTTICRFEALQLSFKNMCKLRPLLQKWVEEADNNENLQEICKAETLVQARKRKRTSIENRVRGNLENLFLQCPKPTLQQISHIAQQLGLEKDVVRVWFCNRRQKGKRSSSDYAQ”, for which the protein production entry is “not failed”.

“SETQSFVVSVAGSDRVGIVHDFSWALKNISANVESSRMACLGGDFAMIVLVSLNAKDGKLIQSALESALPGFQISTRRASSVAERHVSPDTREYELYVEGPDSEGIVEAVTAVLAKKGANIVELETETLPAPFAGFTLFRMGSRVAFPFPLYQEVVTALSRVEEEFGVDIDLEEVVEGEDSEEDDDSPNSPVGRH”: the protein production entry was “not failed”.

Take “SGCGGSRADAIEPRYYESWTRETESTWLTYTDSDAPPSAAAPDSGPEAGGLHSGMLEDGLPSNGVPRSTAPGGIPNPEKKTNCETQCPNPQSLSSGPLTQKQNGLQTTEAKRDAKRMPAKEVTINVTDSIQQMDRSRRITKNCVN”: the protein production entry was “failed”.

For the sequence “SGCIQSITCKARIRRENIVVYDVCATIDQCPTRIEETSPIVLRYKTPYFKASARVVMPPIPRHETWVVGWIQACNQMEFFNTYSDLGMSSWELPDLREGRVKAISDSDGVSYPWYGNTTETVTLVGPTNKISRFSVSMNDNFYPSVTWAVPVSDSNVPLLTRIKRDQSFTTWLVAMNTTTKEKIILQTIKWRMRVDIEVDPLQLLGQRARLVGRTQQEQPRILSRMEPIPPNALVKPNANDAQVLMWRPKRGPPLVVIPPK”, the protein production result is given as “not failed”.
